Test results published in patent US20220033501A1 (SHANGHAI PHARMAEXPLORER, published 2022).

Tests used:
[1] = target: T1, human TIM-3 protein on human PBMC (human, UniProt Q8TDQ0 22-301); assay: cell-based or functional assay
T1 sequence: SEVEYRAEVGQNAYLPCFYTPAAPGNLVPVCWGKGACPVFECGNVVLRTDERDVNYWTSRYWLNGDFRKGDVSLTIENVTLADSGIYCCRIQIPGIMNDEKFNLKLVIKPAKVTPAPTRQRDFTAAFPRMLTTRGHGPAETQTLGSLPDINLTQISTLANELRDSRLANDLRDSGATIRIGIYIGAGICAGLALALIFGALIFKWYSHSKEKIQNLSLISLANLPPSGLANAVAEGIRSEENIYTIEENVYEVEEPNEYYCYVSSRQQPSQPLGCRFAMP

[2] = target: T2, human TIM-3 ECD (antigen protein of the affinity test) (human, UniProt Q8TDQ0 22-200); assay: AHC sensor kinetics, antibody captured on sensor, antigen protein in solution, global 1:1 fit
T2 sequence: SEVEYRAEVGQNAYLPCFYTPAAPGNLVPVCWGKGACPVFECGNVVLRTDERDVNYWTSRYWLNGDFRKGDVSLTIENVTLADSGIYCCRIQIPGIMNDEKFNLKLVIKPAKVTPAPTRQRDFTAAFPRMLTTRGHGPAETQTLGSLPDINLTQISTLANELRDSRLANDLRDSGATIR
Procedure: First, AHC sensor was selected, and the sensor was balanced with buffer solution for 10 min, then the antibody to be tested was diluted to 5 μg/ml with buffer solution, and the antibody was solidified with the sensor for 3-5 min, with a signal value of 1-2 nm. The sensor was balanced again with buffer solution for 3 minutes, and then the antigen protein was diluted to 100 nM (the highest concentration was tentatively 100 nM) to bind and dissociate the antibody coupled by the sensor. If enough signal value was obtained, the antigen protein was diluted by several concentration gradients to analyze the binding and dissociation of antibody and antigen. At that end of each cycle, the sensor surface was regenerated with 10 mM, pH 1.5 Glycine. The kinetic rate constant needed to be subtracted the blank control, and the data was fitted with the global fit analysis method 1:1 combination model. The dissociation equilibrium rate constant (KD) was calculated according to the following formula: KD=kd/ka.

B1: fully human TIM-3 antibody 7A4F10 (antibody, human IgG4, V domains shown)
VH: EVQLLESGGGLVQPGGSLRLSCAASGFTFRTHLISWVRQAPGKGLEWVAAITGSGGSTYYADSVKGRFIISRDNSKNTLFLQMNSLRAEDTAVYYCAKDGGSGSYDDFWGQGTLVTVSS
VL: ETVLTQSPVTLSLSPGERATLSCRASQSVGSYLAWYQQKPGQAPRLLIYDASNRATGIPARFSGSGSGTDFTLTISSLEPEDFAVYYCQQRSNWPPTFGQGTKVEIK
notes: also called antibody number 1
In the case of B1, the “IFN-γ production, lymphocyte activation assay (donor Y), antibody 0.1 µg/ml, N = 1” value (“IFN-γ production … antibody 0.1 µg/ml, N = 1” below) [1] is reported as 3150 pg/mL, the “IFN-γ production, lymphocyte activation assay (donor Y), antibody 0.1 µg/ml, N = 2” value (from here on “IFN-γ production … antibody 0.1 µg/ml, N = 2”) [1] is reported as 3220 pg/mL and the “IFN-γ production, lymphocyte activation assay (donor Y), antibody 1 µg/ml, N = 1” value (shortened to “IFN-γ production … antibody 1 µg/ml, N = 1”) [1] is reported as 3330 pg/mL. For the same binder, the “IFN-γ production, lymphocyte activation assay (donor Y), antibody 1 µg/ml, N = 2” value (from here on “IFN-γ production … antibody 1 µg/ml, N = 2”) [1] was 3220 pg/mL, the “IFN-γ production, lymphocyte activation assay (donor Y), antibody 10 µg/ml, N = 1” value (“IFN-γ production … antibody 10 µg/ml, N = 1” for short) [1] was 3340 pg/mL and the “IFN-γ production, lymphocyte activation assay (donor Y), antibody 10 µg/ml, N = 2” value (from here on “IFN-γ production … antibody 10 µg/ml, N = 2”) [1] was 3890 pg/mL. For the same binder, the “IFN-γ production, lymphocyte activation assay (donor Y), antibody concentration head printed '0' (fifth), N = 1” value (from here on “IFN-γ production … (fifth), N = 1”) [1] was 2180 pg/mL, the “IFN-γ production, lymphocyte activation assay (donor Y), antibody concentration head printed '0' (fifth), N = 2” value (“IFN-γ production … (fifth), N = 2” below) [1] was 2090 pg/mL and the “IFN-γ production, lymphocyte activation assay (donor Y), antibody concentration head printed '0' (fourth), N = 1” value (shortened to “IFN-γ production … (fourth), N = 1”) [1] was 2250 pg/mL. For the same binder, the “IFN-γ production, lymphocyte activation assay (donor Y), antibody concentration head printed '0' (fourth), N = 2” value (from here on “IFN-γ production … (fourth), N = 2”) [1] was 2160 pg/mL, the Kd [2] was 1.01 nM and the koff [2] was 0.00113 s⁻¹. The kon [2] was 1.11e+06 M⁻¹ s⁻¹.

B2: fully human TIM-3 antibody 18D2H2 (antibody, human IgG4, V domains shown)
VH: EVQLVESGGDLVQPGGSLRLSCAASGFTFSTYWMTWVRQAPGRGLEWVANIKQDGSAKYYVDSVKGRFTLSRDDAKNSLYLQMNSLRAEDTAVYYCARGSNWFDYWGQGTLVTVSS
VL: ETVMTQSPATLSVSPGERATLSCRANQNVYSNLAWYQQKPGQAPRLLIYDASTRATGFPARFSGSGSGTEFTLTISSLQSEDFAVYYCQQYNNWPLTFGGGTKVEIK
notes: also called antibody number 2
For B2, the “IFN-γ production … antibody 0.1 µg/ml, N = 1” value [1] was 2540 pg/mL, the “IFN-γ production … antibody 0.1 µg/ml, N = 2” value [1] was 2750 pg/mL and the “IFN-γ production … antibody 1 µg/ml, N = 1” value [1] was 3110 pg/mL. For the same binder, the “IFN-γ production … antibody 1 µg/ml, N = 2” value [1] was 2860 pg/mL, the “IFN-γ production … antibody 10 µg/ml, N = 1” value [1] was 3050 pg/mL and the “IFN-γ production … antibody 10 µg/ml, N = 2” value [1] was 3130 pg/mL. For the same binder, the “IFN-γ production … (fifth), N = 1” value [1] was 2130 pg/mL, the “IFN-γ production … (fifth), N = 2” value [1] was 2050 pg/mL and the “IFN-γ production … (fourth), N = 1” value [1] was 2200 pg/mL. The “IFN-γ production … (fourth), N = 2” value [1] was 2240 pg/mL, the Kd [2] was 2.58 nM and the koff [2] was 0.00313 s⁻¹. It also gave a kon [2] of 1.22e+06 M⁻¹ s⁻¹.

B3: fully human TIM-3 antibody 57F4E5 (antibody, human IgG4, V domains shown)
VH: EVQLVESGGGLVQPGGSLRLSCAASGFTFSSYWMSWVRQAPGKGLEWVANIKQDGSEKYYVDSVKGRFTISRDSAKNSLYLQMNSLRAEDTAMYFCARDSNFFDYWGQGTLVTVSS
VL: ETVMTQSPATLSVSPGERATLSCRASQSVSSNLAWYQRKPGQAPRLLIYFSSTRATGIPARFSGSGSGTEFTLTISSLQSEDFAVYYCQQYNNWPLTFGGGTKVEIK
notes: also called antibody number 7
With B3 the “IFN-γ production … antibody 0.1 µg/ml, N = 1” value [1] was 3210 pg/mL, the “IFN-γ production … antibody 0.1 µg/ml, N = 2” value [1] was 2870 pg/mL and the “IFN-γ production … antibody 1 µg/ml, N = 1” value [1] was 3550 pg/mL. The “IFN-γ production … antibody 1 µg/ml, N = 2” value [1] was 3610 pg/mL, the “IFN-γ production … antibody 10 µg/ml, N = 1” value [1] was 3960 pg/mL and the “IFN-γ production … antibody 10 µg/ml, N = 2” value [1] was 3660 pg/mL. The “IFN-γ production … (fifth), N = 1” value [1] was 2150 pg/mL, the “IFN-γ production … (fifth), N = 2” value [1] was 2100 pg/mL and the “IFN-γ production … (fourth), N = 1” value [1] was 2310 pg/mL. The “IFN-γ production … (fourth), N = 2” value [1] was 2050 pg/mL, the Kd [2] was 2.48 nM and the koff [2] was 0.00397 s⁻¹. For the same binder, the kon [2] was 1.6e+06 M⁻¹ s⁻¹.

B4: fully human TIM-3 antibody 34B6D8 (antibody, human IgG4, V domains shown)
VH: EVQLVESGGGLVQPGGSLRLSCAASGFTFSTYWMTWVRQAPGKRLEWVANIKQGGGDKYYVDSVKGRFTISTDNAKNSLYLQMNSLRAEDTAVYYCARGSNWFDPWGQGTLVTVSS
VL: EIVMTQSPATLSMSPGERATLSCRASQSVYDNLAWYQQKPGQAPRLLIYGASTRATGIPARFSGSGSGTEFTLTISSLQSEDFALYYCQQYTHWPITFGQGTRLEIK
notes: also called antibody number 5
For B4, the “IFN-γ production … antibody 0.1 µg/ml, N = 1” value [1] was 2890 pg/mL, the “IFN-γ production … antibody 0.1 µg/ml, N = 2” value [1] was 2900 pg/mL and the “IFN-γ production … antibody 1 µg/ml, N = 1” value [1] was 3050 pg/mL. For the same binder, the “IFN-γ production … antibody 1 µg/ml, N = 2” value [1] was 3830 pg/mL, the “IFN-γ production … antibody 10 µg/ml, N = 1” value [1] was 3520 pg/mL and the “IFN-γ production … antibody 10 µg/ml, N = 2” value [1] was 3630 pg/mL. The “IFN-γ production … (fifth), N = 1” value [1] was 1820 pg/mL, the “IFN-γ production … (fifth), N = 2” value [1] was 2040 pg/mL and the “IFN-γ production … (fourth), N = 1” value [1] was 2130 pg/mL. For the same binder, the “IFN-γ production … (fourth), N = 2” value [1] was 2300 pg/mL, the Kd [2] was 1.05 nM and the koff [2] was 0.0012 s⁻¹. For the same binder, the kon [2] was 1.15e+06 M⁻¹ s⁻¹.

B5: fully human TIM-3 antibody 39E5H1 (antibody, human IgG4, V domains shown)
VH: EVQLVESGGGLVQPGGSLRLSCAASGFTFSSYWMSWVRQAPGKGLEWVANIKRGGSERYYVDSVKGRFTISGDNAKNSVYLQMNSLRAEDTAVYYCARGSNWFDPWGQGTLVTVSS
VL: ETVMTQSPAILSVSPGERATLSCRASQSVYSNLAWYQQKLGQAPRLLIYDASTRATGIPARFSGSGSGTEFTLTISSLQSEDFAVYYCQQYNNWPITFGQGTRLEIK
notes: also called antibody number 6
B5 was tested, and the “IFN-γ production … antibody 0.1 µg/ml, N = 1” value [1] was 2710 pg/mL, the “IFN-γ production … antibody 0.1 µg/ml, N = 2” value [1] was 2710 pg/mL and the “IFN-γ production … antibody 1 µg/ml, N = 1” value [1] was 3400 pg/mL. The “IFN-γ production … antibody 1 µg/ml, N = 2” value [1] was 3600 pg/mL, the “IFN-γ production … antibody 10 µg/ml, N = 1” value [1] was 3500 pg/mL and the “IFN-γ production … antibody 10 µg/ml, N = 2” value [1] was 4120 pg/mL. For the same binder, the “IFN-γ production … (fifth), N = 1” value [1] was 1840 pg/mL, the “IFN-γ production … (fifth), N = 2” value [1] was 2100 pg/mL and the “IFN-γ production … (fourth), N = 1” value [1] was 2090 pg/mL. The “IFN-γ production … (fourth), N = 2” value [1] was 1950 pg/mL, the Kd [2] was 1.46 nM and the koff [2] was 0.00155 s⁻¹. The kon [2] was 1.06e+06 M⁻¹ s⁻¹.
